Results published in US20040170969.

Tested on: recombinant MOB expressed as a GST-fusion protein

Sequence of FLAG-Ndr (cells treated with okadaic acid) (chain, as listed by the source): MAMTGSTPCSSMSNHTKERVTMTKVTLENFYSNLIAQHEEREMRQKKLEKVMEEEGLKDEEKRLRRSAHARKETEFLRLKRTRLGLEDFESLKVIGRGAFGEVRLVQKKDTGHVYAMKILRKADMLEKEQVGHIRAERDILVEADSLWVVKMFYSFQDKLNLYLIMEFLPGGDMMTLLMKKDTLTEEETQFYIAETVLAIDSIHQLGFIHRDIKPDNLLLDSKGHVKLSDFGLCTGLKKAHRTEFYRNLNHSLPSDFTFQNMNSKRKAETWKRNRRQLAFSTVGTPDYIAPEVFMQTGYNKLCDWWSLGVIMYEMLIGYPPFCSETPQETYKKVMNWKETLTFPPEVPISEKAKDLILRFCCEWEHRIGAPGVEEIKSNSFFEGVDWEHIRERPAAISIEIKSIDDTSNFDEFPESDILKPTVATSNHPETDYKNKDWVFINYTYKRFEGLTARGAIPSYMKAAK

## FLAG-Ndr (cells treated with okadaic acid)
  phosphorylation of GST-MOB by Ndr (FIG. 19): recombinant MOB expressed as a GST-fusion protein is specifically phosphorylated by active Ndr
